Stoichiometry N data for one substance are collected here from article PMC3711648.

As a reminder, the stoichiometry N is a count of units in the complex or per binding partner.

In the test the target is human mutant SOD1 G93A (Cu/Zn superoxide dismutase) (human). In words: SEC.

In the case of “human mutant SOD1 G93A (Cu/Zn superoxide dismutase) (natural protein)”, the stoichiometry N turned out to be 2.
